Reference: patent US10130693B2, “Peptides, combination of peptides and scaffolds for use in immunotherapeutic treatment of various cancers” (Immatics Biotechnologies GmbH, priority 2015, dated 2018)

target: HLA-A*02:01 (Homo sapiens, UniProt P04439, D140Y/D185E/D98H/E176V/E277Q/G131W/G231S/I119V/I121R/I166T/I218V/L300P/L318F/N151K/N90K/P208A/P217A/Q86G/Q94H/R138H/R169H/T345S); experiment: MHC binding assay, UV-ligand exchange with beta2m ELISA (exchange yield), HLA-A*02; conditions: binding to HLA-A*02 ranged by peptide exchange yield
Text: Candidate peptides for T cell based therapies according to the present invention were further tested for their MHC binding capacity (affinity). The individual peptide-MHC complexes were produced by UV-ligand exchange, where a UV-sensitive peptide is cleaved upon UV-irradiation, and exchanged with the peptide of interest as analyzed. Only peptide candidates that can effectively bind and stabilize the peptide-receptive MHC molecules prevent dissociation of the MHC complexes. To determine the yield of the exchange reaction, an ELISA was performed based on the detection of the light chain (β2m) of stabilized MHC complexes. The assay was performed as generally described in Rodenko et al. (Rodenko et al., 2006).
96 well MAXISorp plates (NUNC) were coated over night with 2 ug/ml streptavidin in PBS at room temperature, washed 4× and blocked for 1 h at 37° C. in 2% BSA containing blocking buffer. […] Peptide-MHC monomers of the UV-exchange reaction were diluted 100 fold in blocking buffer. Samples were incubated for 1 h at 37° C., washed four times, incubated with 2 ug/ml HRP conjugated anti-β2m for 1h at 37° C., washed again and detected with TMB solution that is stopped with […]. Absorption was measured at 450 nm. Candidate peptides that show a high exchange yield (preferably higher than 50%, most preferred higher than 75%) are generally preferred for a generation and production of antibodies or fragments thereof, and/or T cell receptors or fragments thereof, as they show sufficient avidity to the MHC molecules and prevent dissociation of the MHC complexes.

Substance	Peptide exchange (MHC class I binding score)
1 (PLWGKVFYL; listed as Homo sapiens) [compound 1]	++ (20%-49% = ++)
3 (TLLGKQVTL; listed as Homo sapiens) [compound 3]	+++ (50%-75% = +++)
4 (ELAEIVFKV; listed as Homo sapiens) [compound 4]	+++ (50%-75% = +++)
5 (SLFGQEVYC; listed as Homo sapiens) [compound 5]	+++ (50%-75% = +++)
6 (FLDPAQRDL; listed as Homo sapiens) [compound 6]	+++ (50%-75% = +++)
10 (KTLDVFNIIL; listed as Homo sapiens) [compound 10]	++ (20%-49% = ++)
11 (GVLKVFLENV; listed as Homo sapiens) [compound 11]	++ (20%-49% = ++)
12 (GLIYEETRGV; listed as Homo sapiens) [compound 12]	++ (20%-49% = ++)
13 (VLRDNIQGI; listed as Homo sapiens) [compound 13]	+++ (50%-75% = +++)
14 (LLDHLSFINKI; listed as Homo sapiens) [compound 14]	++ (20%-49% = ++)
16 (HLYNNEEQV; listed as Homo sapiens) [compound 16]	++ (20%-49% = ++)
18 (YVLNEEDLQKV; listed as Homo sapiens) [compound 18]	+++ (50%-75% = +++)
19 (TLLPTVLTL; listed as Homo sapiens) [compound 19]	+++ (50%-75% = +++)
20 (ALDGHLYAI; listed as Homo sapiens) [compound 20]	+++ (50%-75% = +++)
21 (SLYHRVLLY; listed as Homo sapiens) [compound 21]	++++ (>=75% = ++++)
22 (MLSDLTLQL; listed as Homo sapiens) [compound 22]	++++ (>=75% = ++++)
23 (AQTVVVIKA; listed as Homo sapiens) [compound 23]	+ (<20% = +)

Substance	Peptide exchange (MHC class I binding score)
24 (FLWNGEDSAL; listed as Homo sapiens) [compound 24]	+++ (50%-75% = +++)
25 (IQADDFRTL; listed as Homo sapiens) [compound 25]	++ (20%-49% = ++)
26 (KVDGVVIQL; listed as Homo sapiens) [compound 26]	+++ (50%-75% = +++)
27 (KVFGDLDQV; listed as Homo sapiens) [compound 27]	+++ (50%-75% = +++)
28 (TLYSMDLMKV; listed as Homo sapiens) [compound 28]	+++ (50%-75% = +++)
29 (TLCNKTFTA; listed as Homo sapiens) [compound 29]	+++ (50%-75% = +++)
31 (ALSDETKNNWEV; listed as Homo sapiens) [compound 31]	++++ (>=75% = ++++)
32 (ILADEAFFSV; listed as Homo sapiens) [compound 32]	+++ (50%-75% = +++)
33 (LLLPLLPPLSPSLG; listed as Homo sapiens) [compound 33]	+++ (50%-75% = +++)
35 (YVLPKLYVKL; listed as Homo sapiens) [compound 35]	++ (20%-49% = ++)
36 (KLYGIEIEV; listed as Homo sapiens) [compound 36]	++++ (>=75% = ++++)
37 (ALINDILGELVKL; listed as Homo sapiens) [compound 37]	+++ (50%-75% = +++)
38 (KMQEDLVTL; listed as Homo sapiens) [compound 38]	+++ (50%-75% = +++)
39 (ALMAVVSGL; listed as Homo sapiens) [compound 39]	+++ (50%-75% = +++)
40 (SLLALPQDLQA; listed as Homo sapiens) [compound 40]	+++ (50%-75% = +++)
41 (FVLPLVVTL; listed as Homo sapiens) [compound 41]	+++ (50%-75% = +++)

test system: HLA-A*24; experiment: MHC binding assay, UV-ligand exchange with beta2m ELISA (exchange yield), HLA-A*24; design: species or system human; conditions: binding to HLA-A*24, UV-ligand exchange
In short: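 Peptide–MHC complexes formed by UV-ligand exchange: a UV-cleavable peptide is replaced by the test peptide, and only binders keep the complex stable. Exchange yield read by streptavidin-capture ELISA on reactions diluted 100-fold, detected with HRP anti-β2m (2 ug/ml, 1 h, 37° C) and TMB at 450 nm.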

Substance	Peptide exchange (MHC class I binding score, peptide exchange yield)
355 (IYVTGGHLF; listed as Homo sapiens) [compound 355]	+++ (50%-75% = +++)
357 (QFITSTNTF; listed as Homo sapiens) [compound 357]	++++ (>=75% = ++++)
361 (TYADIGGLDNQI; listed as Homo sapiens) [compound 361]	+++ (50%-75% = +++)
362 (VYNYAEQTL; listed as Homo sapiens) [compound 362]	++ (20%-49% = ++)
364 (KYLNENQLSQL; listed as Homo sapiens) [compound 364]	+++ (50%-75% = +++)
368 (KYQNVKHNL; listed as Homo sapiens) [compound 368]	+++ (50%-75% = +++)
369 (VYTHEVVTL; listed as Homo sapiens) [compound 369]	+++ (50%-75% = +++)
370 (RFIGIPNQF; listed as Homo sapiens) [compound 370]	+++ (50%-75% = +++)
372 (VYVIEPHSMEF; listed as Homo sapiens) [compound 372]	+++ (50%-75% = +++)
373 (GYISNGELF; listed as Homo sapiens) [compound 373]	+++ (50%-75% = +++)
374 (VFLPRVTEL; listed as Homo sapiens) [compound 374]	++ (20%-49% = ++)
375 (KYTDYILKI; listed as Homo sapiens) [compound 375]	+++ (50%-75% = +++)
376 (VYTPVASRQSL; listed as Homo sapiens) [compound 376]	+++ (50%-75% = +++)
377 (QYTPHSHQF; listed as Homo sapiens) [compound 377]	+++ (50%-75% = +++)
378 (VYIAELEKI; listed as Homo sapiens) [compound 378]	+++ (50%-75% = +++)
379 (VFIAQGYTL; listed as Homo sapiens) [compound 379]	++++ (>=75% = ++++)
381 (KYPASSSVF; listed as Homo sapiens) [compound 381]	+++ (50%-75% = +++)
382 (AYLPPLQQVF; listed as Homo sapiens) [compound 382]	+++ (50%-75% = +++)
383 (RYKPGEPITF; listed as Homo sapiens) [compound 383]	+++ (50%-75% = +++)
384 (RYFDVGLHNF; listed as Homo sapiens) [compound 384]	+++ (50%-75% = +++)
385 (QYIEELQKF; listed as Homo sapiens) [compound 385]	+++ (50%-75% = +++)
386 (TFSDVEAHF; listed as Homo sapiens) [compound 386]	+++ (50%-75% = +++)
387 (KYTEKLEEI; listed as Homo sapiens) [compound 387]	+++ (50%-75% = +++)
388 (IYGEKTYAF; listed as Homo sapiens) [compound 388]	+++ (50%-75% = +++)
